Results reported in the supplement of paper PMC10567573.

B1: WDFY2 (parent)
chain: FWNFKQMWDSKKIGLRQHHCRKCG

Variants of: B1
Assay: protein stability index of a GFP-peptide fusion (GPS, HEK-293T) (PSI 1-6); higher = more stable
Details: c terminus: a fixed tail appended
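Further: lentivirally expressed fusions sorted by FACS into six bins by GFP to DsRed ratio, PSI derived from sequencing read proportions per bin multiplied by bin number.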

Protein stability index, by site and new letter:
C20: K 2.15, S 2.49, D 1.89, T 2.28, H 3.07, A 1.82, G 2.91, N 2.31, L 2.09, P 1.94, M 3.04, Q 2.15, V 1.73, F 2.54, R 2.37, I 2.01, E 2.47
S10: E 1.72, P 2.17, K 2.04, A 1.32, V 1.78, H 2.55, Q 2.65, I 2.94, F 1.72, M 1.76, L 1.67, Y 1.72, D 1.75, C 1.94, T 1.73, R 1.53
Q6: G 2.79, P 2.04, D 1.91, C 2.34, Y 1.6, E 1.89, I 1.68, F 1.53, S 1.85, V 1.51, R 1.79, T 1.82, K 2.44, W 1.28, L 2.03, N 2.27, M 1.93, A 1.56, H 2.27
I13: S 2.54, F 2.15, Q 1.73, C 2.72, P 1.86, A 2.52, H 1.81, M 2.29, D 2.55, V 2.02, T 1.66, G 1.99, W 1.67, K 1.99, E 2.28, Y 2.25, R 2.01, N 2.42
H18: N 3.5, Y 2.5, K 2.06, S 1.84, I 1.8, M 1.38, T 1.56, L 1.76, V 1.83, P 2.05, W 2.18, Q 1.44, C 2.94, F 1.51, E 2.25, R 2.5, A 1.73, D 1.79
N3: M 1.35, G 2.28, S 3.29, W 1.65, L 1.42, Y 1.91, Q 2.1, T 1.8, V 3.37, A 1.22, E 2.12, P 1.85, C 2.08, I 1.84, K 1.7, F 2.05, H 1.77, R 1.42, D 2.05
G14: T 2.4, H 1.82, V 2, Y 2.53, W 1.91, S 3.27, R 1.9, P 1.46, C 2.45, N 1.95, F 1.93, Q 1.32, I 1.48, D 2.41, L 2, A 1.66, K 2.14, M 1.89
H19: W 1.69, Q 1.87, F 1.79, I 2.22, D 2.11, G 2.38, P 2.17, A 1.86, V 1.98, S 2.02, K 2.39, N 2.68, L 2.02, C 1.73, T 1.72, E 1.62, R 2.39, Y 1.76
F4: V 2.33, L 1.94, Q 2.41, P 1.93, A 1.61, T 2.3, N 2.29, C 2.36, I 1.51, W 2.26, H 2.47, R 2.33, K 1.46, G 2.23, D 2.27, S 2.12, M 2.26, Y 1.99, E 2.39
W8: D 3, Q 2.39, L 2.59, N 3.72, T 2.07, P 2.16, V 2.22, Y 2.04, G 2.48, I 1.8, R 2.58, M 3.04, H 2.79, C 2.34, F 2.25, E 3.3, S 2.14, A 2.12, K 2.69
W2: Y 2.25, V 3.04, S 1.42, R 2.61, P 2.58, Q 1.19, T 2.12
K11: A 2.93, F 2.48, R 1.74, P 2.19, V 1.99, Q 2.54, N 2.7, W 1.51, C 2.65, E 2.61, D 2.1, I 2.5, H 2.12, S 1.25, G 2.44, T 1.76, L 1.73, M 1.83, Y 2.71
Q17: A 2.32, L 1.99, H 2.18, W 1.82, G 1.49, F 1.35, R 2, M 1.91, S 1.99, N 1.35, T 1.2, K 1.38, D 1.9, I 2.84, P 2.52, C 1.61, Y 2.12, V 2.13, E 1.53
M7: L 2, C 2.09, H 2.48, R 2.33, S 2.57, Q 2.21, D 2.41, V 1.71, G 1.68, K 1.69, F 2.09, P 2.06, A 2.19, W 1.74, I 1.92, Y 2.34, E 2.82, N 1.62, T 2.11
K5: T 1.5, I 1.7, L 1.83, S 1.52, F 1.38, Q 2.4, M 2.6, D 1.96, G 1.5, A 1.81, W 1.38, R 1.24, E 2.22, Y 1.24, H 1.66, N 1.76, V 2.33, P 1.98, C 2.66
K12: N 1.85, E 2.05, P 2.03, D 1.88, S 2.62, A 1.68, H 2.01, Y 1.53, L 1.89, T 2.08, G 1.58, C 2.79, M 1.73, Q 2.1, V 2.42, R 1.71, W 2.3, I 2.06, F 1.84
D9: Q 1.84, N 1.81, C 1.2, V 3.81, G 1.77, H 2.63, P 2.43, I 2.56, E 2.3, Y 2.95, K 2.05, R 1.73, S 1.28, W 1.81, F 1.54, T 1
R16: S 2.15, K 1.53, P 3.42, D 2.06, L 1.76, M 1.94, N 1.84, T 1.67, Y 1.85, V 2.1, F 3.39, C 1.59, Q 2.66, E 2.92, G 1.54, H 2.06, A 1.97
L15: P 2.68, Q 1.95, A 2.01, T 2.01, M 1.97, G 2.14, K 2.32, E 2.48, R 2.61, F 1.81, I 1.92, D 2.17, W 1.42, S 2.25, N 2.11, Y 1.93, H 1.71, V 2.34
